T1: human TNC rCd4-His-FBG (rat; human, UniProt P05540 207-386)
T1 construct: domain: domains 3 and 4; Biotinylated in the ELISA and HTRF assays; also called Hu TNC; human TNC FBG
T1 sequence: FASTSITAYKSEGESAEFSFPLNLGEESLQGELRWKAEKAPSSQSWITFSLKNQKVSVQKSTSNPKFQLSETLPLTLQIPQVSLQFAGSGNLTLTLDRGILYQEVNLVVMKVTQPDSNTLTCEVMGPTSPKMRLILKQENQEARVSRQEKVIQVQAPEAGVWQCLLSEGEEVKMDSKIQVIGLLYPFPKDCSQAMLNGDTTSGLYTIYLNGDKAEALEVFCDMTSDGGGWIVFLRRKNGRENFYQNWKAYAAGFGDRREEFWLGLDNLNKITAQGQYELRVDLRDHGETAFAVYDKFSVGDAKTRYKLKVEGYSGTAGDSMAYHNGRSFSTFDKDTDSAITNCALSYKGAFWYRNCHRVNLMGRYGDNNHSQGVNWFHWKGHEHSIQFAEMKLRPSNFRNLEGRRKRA

T2: mouse TNC rCd4-His-FBG (rat; mouse, UniProt P05540 207-386)
T2 construct: domain: domains 3 and 4; also called Mu TNC; mouse TNC FBG
T2 sequence: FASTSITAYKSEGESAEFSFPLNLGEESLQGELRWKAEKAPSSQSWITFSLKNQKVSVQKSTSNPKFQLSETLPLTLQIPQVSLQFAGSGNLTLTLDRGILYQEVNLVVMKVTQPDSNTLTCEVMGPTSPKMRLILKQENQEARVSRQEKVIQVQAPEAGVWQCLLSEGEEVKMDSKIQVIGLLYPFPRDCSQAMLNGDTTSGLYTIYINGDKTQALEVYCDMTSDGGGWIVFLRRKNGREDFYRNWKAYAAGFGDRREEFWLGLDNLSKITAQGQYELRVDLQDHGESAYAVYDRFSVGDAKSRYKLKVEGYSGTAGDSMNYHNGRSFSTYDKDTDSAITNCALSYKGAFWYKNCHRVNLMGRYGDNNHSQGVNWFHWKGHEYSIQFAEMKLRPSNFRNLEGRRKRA

T3: human TNC rCd4-His-FBG (rat; human)
T3 sequence: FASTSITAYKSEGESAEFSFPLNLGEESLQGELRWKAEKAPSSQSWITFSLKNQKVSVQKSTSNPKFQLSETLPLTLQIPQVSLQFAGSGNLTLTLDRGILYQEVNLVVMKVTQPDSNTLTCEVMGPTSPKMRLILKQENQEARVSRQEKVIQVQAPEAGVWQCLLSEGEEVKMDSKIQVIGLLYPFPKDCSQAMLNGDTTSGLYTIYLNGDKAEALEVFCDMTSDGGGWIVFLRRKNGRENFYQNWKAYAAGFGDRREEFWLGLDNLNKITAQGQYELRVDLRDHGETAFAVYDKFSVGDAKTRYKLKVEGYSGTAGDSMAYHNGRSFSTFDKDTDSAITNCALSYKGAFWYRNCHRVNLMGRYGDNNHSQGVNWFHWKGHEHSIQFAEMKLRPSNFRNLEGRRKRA


Assays:
human TNC rCd4-His-FBG = molecular target: T1, human TNC rCd4-His-FBG; test: HTRF competition, scFv supernatant, competitor d2-labelled B12 IgG, biotinylated human rCd4-His-FBG
Experimental: An HTRF-based competition assay was developed to screen for antibody variants with improved binding to human TNC FBG.
All samples and reagents were prepared in assay buffer (50 mM NaPO₄, 0.1% BSA, 0.4 M KF, pH 7.0) at 4× the stated concentration. 5 μl of each reagent was subsequently added to low volume 384-well assay plates (Greiner, 784075) to give a final reaction volume of 20 μl. IgG antibodies were labelled using the d2 labelling kit (CisBio, 62D2DPEA) as directed by the manufacturer. Streptavidin europium cryptate (CisBio, 610SAKLA, Lot#25C) was used at a final concentration of 1.8 ng active moiety (SA) per 20 μl reaction as recommended by the manufacturer. Biotinylated rCd4-His-FBG was prepared using EZ-link Sulfo-NHS-LC-Biotin reagent (Thermo Scientific, 21327) the extent of biotinylation was quantified using biotinylation fluorescence quantitation kit (Thermo Scientific, 46610). Where appropriate, supernatants containing scFv (prepared as described above for ELISA assays) were added to the 384-well assay plate at a final dilution of 1/20 (i.e. 1/5 dilution in assay buffer followed by addition of 5 μl diluted sample to the 20 μl FRET assay). […] Unless otherwise stated, biotinylated rCd4-His-FBG (biotin:protein ratio=1.8:1) was present at either 2.2 nM (in assays using the 2A5 IgG antibody) or 1 nM (in experiments using B12 IgG). Samples were incubated for approximately 1 h at room temperature and the FRET signal was determined using a BMG Pherastar instrument: excitation=320 nm; emission=620 nm and 665 nm; integration start time=60 μs; integration time=500 μs; 100 flashes per well. For competition assays containing culture supernatant, biotinylated rCd4-His-FBG antigen was pre-incubated with streptavidin europium cryptate for 45 min prior to addition of reagents to the assay plate. All FRET signals are presented as ΔR, where R=(E665/E620×104) and ΔR=(Rsample−Rbackground fluorescence).
Culture supernatants containing unlabelled scFv clones from affinity selected mutant libraries were tested for inhibition of the interaction between FBG and the fluorophore-labelled parental IgG antibody.

mouse TNC rCd4-His-FBG = molecular target: T2, mouse TNC rCd4-His-FBG; test: anti-FLAG capture DELFIA ELISA, scFv supernatant, biotinylated mouse rCd4-His-FBG
Experimental: E. coli clones harbouring scFv pSANG10 expression plasmids were induced in 96-well plates with auto-induction media as described previously (Schofield et al, 2007). E. coli supernatants were harvested for ELISA assays. ELISA used the DELFIA (dissociation enhanced lanthanide fluorescent immunoassay) system with Europium-labelled anti-FLAG antibody (Sigma, Aldrich, UK). Black immunosorb plates (Nunc) were coated overnight with anti-FLAG M2 antibody (Sigma, F3165, 5 μg/ml in PBS, 50 μl per well), in wells blocked by the addition of 2% milk powder, PBS (PBS-M, 300 μl per well). Plates were washed three times with PBS-T (PBS, 0.1% Tween-20) and three times with PBS followed by the addition of a 1:2 dilution of 96-well auto-induction culture supernatants containing expressed scFv in PBS-M (50 μl per well). The plates were incubated for 1 h, washed as above and biotinylated mouse or human rCd4-His-FBG (5 μg/ml in PBS-M, 50 μl) added to each well. Plates were incubated for a further 1 h, washed and Strepravidin-Eu added (Perkin Elmer, 1 μg/ml, PBS-M, 50 μl), incubated for 30 min, washed and DELFIA enhancement solution added (50 μl) and plates read on a Perkin Elmer Fusion plate reader (excitation=320 nm, emission 620 nm). The format of the assay is shown in.

[1] = molecular target: T3, human TNC rCd4-His-FBG (rat; human); test: HTRF competition, scFv supernatant, competitor d2-labelled B12 IgG, biotinylated human rCd4-His-FBG

% inhibition of HTRF signal (human TNC rCd4-His-FBG) [%] | fold improvement for mouse FBG binding (against the parent B12) (mouse TNC rCd4-His-FBG) [fold] | % inhibition by parent scFv [1] [%] | Binder
91 | ≥ 4 | – | 180_11_F5 scFv (scFv, V domains shown, not shown: small tags and cut ends, VH CDR3 VMRTGLDTFDI) VH: QVQLVESGGGLVQPGRSLRLSCAASGFTFDDYAMHWVRQAPGKGLEWVSGISGSGGSTYYADSVKGRFTISRDNAKNSLYLQMNSLRAEDTALYYCAKVMRTGLDTFDIWGQGTMVTVSS VL: DIQMTQSPASLPTPVGDRVTITCRASQYIQGFLNWYQQKPGKAPKLLIYDASNLETGVPSRFSGSGSGTDFTLTISSLQPEDFATYYCQQSYSTPQTFGQGTKVDIK
– | – | 19 | 2A5 scFv (scFv, V domains shown, not shown: small tags and cut ends) VH: EVRLVQSGAEVKKPGASVKVSCKVSGYTLTELSMHWVRQAPGKGLEWMGGFDPEDGETIYAQKFQGRVTMTEDTSTDTAYMELSSLRSEDTAVYYCATAQKETYALTYWGQGTLVTVSS VL: DIQMTQSPASLPTSVGDRVTITCRASQYIQGFLNWYQQKPGKAPRLLIYAASTLQDGVPSRFSGSGYGTDFTLTISSLQPEDFATYYCQQSYSTPWTFGQGTKVEIK

— patent publication US20190225680A1 (NASCIENT, published 2019)
